Experimental data from paper PMC5839545, “CENP-C/H/I/K/M/T/W/N/L and hMis12 but not CENP-S/X participate in complex formation in the nucleoplasm of living human interphase cells outside centromeres” (PLoS ONE, 2018).

Columns and labels:
Conditions in all cases: partners not purified
hMis12-(s)-mCherry = biological target: T1, hMis12-(s)-mCherry (human, UniProt Q9H081 1-205); test: dual color fluorescence cross-correlation spectroscopy (DC-FCCS); EGFP and mCherry fusion proteins co-expressed in living interphase HEp-2 or U2OS cells; spots in the nucleoplasm free of kinetochores, focal volume bleached before; 37°C; 488 and 561 nm; corrected values are the measured ones times about two
T1 construct: hMis12, human; source: HEp-2 or U2OS cells, transfected by electroporation, in living cells; not shown: mCherry (short linker)
T1 sequence (looked up): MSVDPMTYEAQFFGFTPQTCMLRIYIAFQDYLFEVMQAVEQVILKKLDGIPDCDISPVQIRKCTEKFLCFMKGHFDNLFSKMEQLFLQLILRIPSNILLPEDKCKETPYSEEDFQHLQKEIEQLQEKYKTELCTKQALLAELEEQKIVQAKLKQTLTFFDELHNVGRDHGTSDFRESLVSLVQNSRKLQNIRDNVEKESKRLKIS

mCherry-(s)-Nnf1 = biological target: T2, mCherry-(s)-Nnf1 (human, UniProt Q6P1K2 1-205); test: as above
T2 construct: Nnf1 of the hMis12 complex, human; source: HEp-2 or U2OS cells, transfected by electroporation, in living cells
T2 sequence (looked up): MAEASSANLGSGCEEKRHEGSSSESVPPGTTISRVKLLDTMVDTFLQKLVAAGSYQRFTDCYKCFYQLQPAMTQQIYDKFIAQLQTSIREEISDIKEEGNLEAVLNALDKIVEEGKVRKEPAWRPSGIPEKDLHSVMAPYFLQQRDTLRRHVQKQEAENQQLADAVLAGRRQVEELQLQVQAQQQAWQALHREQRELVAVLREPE

mCherry-(s)-Nsl1 = biological target: T3, mCherry-(s)-Nsl1 (human, UniProt Q96IY1 1-281); test: as above
T3 construct: Nsl1 of the hMis12 complex, human; source: HEp-2 or U2OS cells, transfected by electroporation, in living cells
T3 sequence (looked up): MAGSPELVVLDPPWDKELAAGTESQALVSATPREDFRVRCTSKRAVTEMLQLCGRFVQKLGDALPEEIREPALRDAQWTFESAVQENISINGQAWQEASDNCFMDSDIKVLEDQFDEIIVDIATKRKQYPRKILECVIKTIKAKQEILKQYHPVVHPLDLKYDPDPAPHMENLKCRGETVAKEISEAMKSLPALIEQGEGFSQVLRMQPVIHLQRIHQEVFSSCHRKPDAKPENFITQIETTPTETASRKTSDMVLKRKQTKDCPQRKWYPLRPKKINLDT

mCherry-(s)-CENP-K = biological target: T4, mCherry-(s)-CENP-K (human, UniProt Q9BS16 1-269); test: as above
T4 construct: CENP-K, human; also called mCherry-CENP-K; source: HEp-2 or U2OS cells, transfected by electroporation, in living cells

mCherry-(s)-CENP-T = biological target: T5, mCherry-(s)-CENP-T (human, UniProt Q96BT3 1-561); test: as above
T5 construct: CENP-T, human; called wildtype against CENP-T^∆N; source: HEp-2 or U2OS cells (DC-FCCS) and HEK293 cells (SW-FCCS), transfected by electroporation, in living cells

Nnf1-(s)-mCherry = biological target: T6, Nnf1-(s)-mCherry (human, UniProt Q6P1K2 1-205); test: as above
T6 construct: Nnf1 of the hMis12 complex, human; source: HEp-2 or U2OS cells, transfected by electroporation, in living cells; not shown: mCherry (short linker)
T6 sequence (looked up): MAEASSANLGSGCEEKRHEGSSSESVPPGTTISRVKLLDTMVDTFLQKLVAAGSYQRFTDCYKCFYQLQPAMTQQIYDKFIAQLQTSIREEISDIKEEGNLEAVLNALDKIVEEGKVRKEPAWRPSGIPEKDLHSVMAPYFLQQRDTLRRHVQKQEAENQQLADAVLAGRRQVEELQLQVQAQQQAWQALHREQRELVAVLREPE

CENP-T-(s)-mCherry = biological target: T7, CENP-T-(s)-mCherry (human, UniProt Q96BT3 1-561); test: as above
T7 construct: CENP-T, human; called full-length CENP-T against its N-terminal domain; source: HEp-2 or U2OS cells, transfected by electroporation, in living cells; not shown: mCherry (short linker)

mCherry-(s)-CENP-W = biological target: T8, mCherry-(s)-CENP-W (human, UniProt Q5EE01 1-88); test: single-wavelength fluorescence cross-correlation spectroscopy (SW-FCCS); EGFP and mCherry fusion proteins co-expressed in living interphase HEK293 cells; nucleoplasm; 37°C; 514 nm; effective (apparent) Kd from scatter plot (S) or histogram (H), corrected for non-fluorescent mCherry and observation volumes
T8 construct: CENP-W, human; source: HEp-2 or U2OS cells (DC-FCCS) and HEK293 cells (SW-FCCS), transfected by electroporation, in living cells
T8 sequence (Q5EE01 whole entry, the tested form may be a part): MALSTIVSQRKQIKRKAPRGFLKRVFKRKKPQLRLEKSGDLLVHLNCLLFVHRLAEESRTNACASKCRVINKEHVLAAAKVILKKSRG

T4 sequence (Q9BS16 whole entry): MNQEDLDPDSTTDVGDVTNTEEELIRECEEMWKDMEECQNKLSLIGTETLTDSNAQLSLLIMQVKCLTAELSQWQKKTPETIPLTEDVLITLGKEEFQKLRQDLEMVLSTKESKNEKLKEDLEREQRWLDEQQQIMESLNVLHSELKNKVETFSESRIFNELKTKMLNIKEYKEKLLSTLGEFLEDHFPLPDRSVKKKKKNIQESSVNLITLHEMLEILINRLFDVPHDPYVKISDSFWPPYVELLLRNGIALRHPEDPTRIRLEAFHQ

B1: EGFP-(s)-Dsn1 (natural protein, human, UniProt Q9H410 1-356, looked up)
chain: MTSVTRSEIIDEKGPVMSKTHDHQLESSLSPVEVFAKTSASLEMNQGVSEERIHLGSSPKKGGNCDLSHQERLQSKSLHLSPQEQSASYQDRRQSWRRASMKETNRRKSLHPIHQGITELSRSISVDLAESKRLGCLLLSSFQFSIQKLEPFLRDTKGFSLESFRAKASSLSEELKHFADGLETDGTLQKCFEDSNGKASDFSLEASVAEMKEYITKFSLERQTWDQLLLHYQQEAKEILSRGSTEAKITEVKVEPMTYLGSSQNEVLNTKPDYQKILQNQSKVFDCMELVMDELQGSVKQLQAFMDESTQCFQKVSVQLGKRSMQQLDPSPARKLLKLQLQNPPAIHGSGSGSCQ
notes: Dsn1 of the hMis12 complex, human; source: HEp-2 or U2OS cells, transfected by electroporation, in living cells
B1 was tested, and the “cross-correlation, measured (%)” value (hMis12-(s)-mCherry) was 32%, the “cross-correlation, measured (%)” value (mCherry-(s)-Nnf1) was 22% and the “cross-correlation, measured (%)” value (mCherry-(s)-Nsl1) was 24%.

B2: EGFP-(s)-Nsl1 (natural protein, human, UniProt Q96IY1 1-281, looked up)
chain: MAGSPELVVLDPPWDKELAAGTESQALVSATPREDFRVRCTSKRAVTEMLQLCGRFVQKLGDALPEEIREPALRDAQWTFESAVQENISINGQAWQEASDNCFMDSDIKVLEDQFDEIIVDIATKRKQYPRKILECVIKTIKAKQEILKQYHPVVHPLDLKYDPDPAPHMENLKCRGETVAKEISEAMKSLPALIEQGEGFSQVLRMQPVIHLQRIHQEVFSSCHRKPDAKPENFITQIETTPTETASRKTSDMVLKRKQTKDCPQRKWYPLRPKKINLDT
notes: Nsl1 of the hMis12 complex, human; source: HEp-2 or U2OS cells, transfected by electroporation, in living cells
B2 was tested, and the “cross-correlation, measured (%)” value (mCherry-(s)-Nnf1) was 18%.

B3: hMis12-(s)-EGFP (natural protein, human, UniProt Q9H081 1-205, looked up)
chain: MSVDPMTYEAQFFGFTPQTCMLRIYIAFQDYLFEVMQAVEQVILKKLDGIPDCDISPVQIRKCTEKFLCFMKGHFDNLFSKMEQLFLQLILRIPSNILLPEDKCKETPYSEEDFQHLQKEIEQLQEKYKTELCTKQALLAELEEQKIVQAKLKQTLTFFDELHNVGRDHGTSDFRESLVSLVQNSRKLQNIRDNVEKESKRLKIS
notes: hMis12, human; source: HEp-2 or U2OS cells, transfected by electroporation, in living cells; not shown: EGFP (short linker)
In the case of B3, the “cross-correlation, measured (%)” value (mCherry-(s)-CENP-K) is reported as 18%, the “cross-correlation, measured (%)” value (mCherry-(s)-CENP-T) is reported as 18% and the “cross-correlation, measured (%)” value (Nnf1-(s)-mCherry) is reported as 31%. The “cross-correlation, measured (%)” value (CENP-T-(s)-mCherry) was 19%.

B4: Nsl1-(s)-EGFP (natural protein, human, UniProt Q96IY1 1-281, looked up)
chain: MAGSPELVVLDPPWDKELAAGTESQALVSATPREDFRVRCTSKRAVTEMLQLCGRFVQKLGDALPEEIREPALRDAQWTFESAVQENISINGQAWQEASDNCFMDSDIKVLEDQFDEIIVDIATKRKQYPRKILECVIKTIKAKQEILKQYHPVVHPLDLKYDPDPAPHMENLKCRGETVAKEISEAMKSLPALIEQGEGFSQVLRMQPVIHLQRIHQEVFSSCHRKPDAKPENFITQIETTPTETASRKTSDMVLKRKQTKDCPQRKWYPLRPKKINLDT
notes: Nsl1 of the hMis12 complex, human; source: HEp-2 or U2OS cells, transfected by electroporation, in living cells; not shown: EGFP (short linker)
In the case of B4, the “cross-correlation, measured (%)” value (hMis12-(s)-mCherry) is reported as 36%.

B5: EGFP-(s)-CENP-T^∆N (domain or fragment, human, UniProt Q96BT3 396-561, looked up)
chain: ASPESASSTPESLQARRHHQFLEPAPAPGAAVLSSEPAEPLLVRHPPRPRTTGPRPRQDPHKAGLSHYVKLFSFYAKMPMERKALEMVEKCLDKYFQHLCDDLEVFAAHAGRKTVKPEDLELLMRRQGLVTDQVSLHVLVERHLPLEYRQLLIPCAYSGNSVFPAQ
notes: CENP-T, human, C-terminal domain, aas 396-561, said to contain the histone-fold domain (aas 376-561); also called EGFP-(s)-CENP-T^396-561; source: HEK293 cells, transfected by electroporation, in living cells
In the case of B5, the “dimer, corrected (%)” value (mCherry-(s)-CENP-W) is reported as 24% and the “dimer, uncorrected (%)” value (mCherry-(s)-CENP-W) is reported as 18.2%.
